The source of these data is patent US20230025525A1 (HELMHOLTZ ZENTRUM M NCHEN DEUTSCHES FORSCHUNGSZENTRUM F R …, published 2023).

The assay deals with T1, human IGFR-like receptor (UPF0577 protein KIAA1324) (human, UniProt Q6UXG2 42-1013).
T1 construct: Endogenous protein in lysates of human MCF7 cells and human islet cells, seen as a band of ~130 kDa on Western blot; also called IGFR-I; IGF3R
T1 sequence: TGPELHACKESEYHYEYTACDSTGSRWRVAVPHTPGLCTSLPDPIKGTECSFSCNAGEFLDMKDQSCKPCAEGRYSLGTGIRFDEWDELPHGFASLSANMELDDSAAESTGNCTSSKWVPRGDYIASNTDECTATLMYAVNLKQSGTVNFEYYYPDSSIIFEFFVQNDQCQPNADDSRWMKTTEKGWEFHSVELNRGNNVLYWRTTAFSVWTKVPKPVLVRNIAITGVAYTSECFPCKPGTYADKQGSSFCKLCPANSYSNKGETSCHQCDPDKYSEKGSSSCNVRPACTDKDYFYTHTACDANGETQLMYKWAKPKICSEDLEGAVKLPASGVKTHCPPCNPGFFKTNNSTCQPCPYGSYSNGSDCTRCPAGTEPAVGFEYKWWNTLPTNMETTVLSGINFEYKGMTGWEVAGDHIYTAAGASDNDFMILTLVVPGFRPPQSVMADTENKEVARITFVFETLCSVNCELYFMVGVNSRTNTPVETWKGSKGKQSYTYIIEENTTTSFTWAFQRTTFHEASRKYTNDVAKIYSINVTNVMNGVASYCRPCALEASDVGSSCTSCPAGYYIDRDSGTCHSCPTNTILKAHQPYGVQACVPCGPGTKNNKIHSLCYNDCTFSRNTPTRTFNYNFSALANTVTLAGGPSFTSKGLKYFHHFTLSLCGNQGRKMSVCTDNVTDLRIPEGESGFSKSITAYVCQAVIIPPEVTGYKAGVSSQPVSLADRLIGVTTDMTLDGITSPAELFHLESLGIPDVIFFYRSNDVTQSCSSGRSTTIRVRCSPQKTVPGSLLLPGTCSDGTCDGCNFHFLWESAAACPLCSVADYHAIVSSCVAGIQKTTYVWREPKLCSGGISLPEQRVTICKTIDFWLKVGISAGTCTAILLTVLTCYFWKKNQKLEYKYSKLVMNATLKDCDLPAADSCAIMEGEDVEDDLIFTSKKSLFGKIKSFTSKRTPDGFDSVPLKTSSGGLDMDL
Kind of assay: Western blot, MCF7 cell lysate (strong). From the text: FIG. 29: Detection of IGFR-like receptor in mouse Min6 insulinoma cells and human MCF7 breast cancer cells using antibody against the extracellular domain of IGFR-like receptor. Western blotting experiments show specific recognition of a protein band of ˜130 kDa in Min6 (weak) and MCF7 (strong) cell lysates by an antibody against the extracellular domain SEQ ID NO: 4 (EIG-B 1862: VHC: SEQ ID NO:31, VLC: SEQ ID NO:32; and 10D9: VHC: SEQ ID NO:33, VLC: SEQ ID NO:34) and SEQ ID NO: 6 (EIG-D 26D7: VHC: SEQ ID NO:35, VLC: SEQ ID NO:36). The EIG-B clones are monoclonal antibodies generated against the peptide SEQ ID NO: 4 in rat, whereas the EIG-D clone is a monoclonal antibody generated against the SEQ ID NO: 6 in mouse.
Cells and tissues were lysed in RIPA buffer (50 mM Tris pH7.5, 150 mM NaCl, 1 mM EDTA, 1% IGEPAL, 0.1% SDS, 0.1% Na deoxycholate) containing a cocktail of proteinase inhibitor (1:100, Sigma, P8340) and phosphatases inhibitors (1:100, Sigma Aldrich, #2 P0044 and #3 P5726) and the cell or tissue lysates were cleared by centrifugation at 13000 r.p.m. for 10-30 min. The proteins (10-20 μg) were resolved in 6.5-15% SDS-PAGE according to the protein size to be detected and transferred to a PVDF membrane. Primary antibodies were added to the membrane in 5% milk and incubated at 4° C. overnight. Protein bands were visualized on Hyperfilms™ (GE healthcare, 28906837) or Blaufilme™ CEA-RP (Ernst Christiansen GmbH, EC84A) by chemiluminescent detection (ECL, Millipore, WBKLS0500).
(A western blot detects proteins with antibodies after separation by electrophoresis.)

B1: EIG-B 18B2 (antibody, V domains shown)
VH: QVQLKESGPGLVQPSQTLSLTCTVSGFSLTSYHISWVRQPPGKGLEWIAAISSGGDTYYNSLLKSRLSISRDTSKSQVFLKMNRLQTEDTAFYFCNGESYWGQGTLVTVSS
VL: DVVLTQSPATLSVTPGERISLSCRASENIDTYLHWFQQKPNESPRLLIKFASQSISGIPSRFSGSGSGRDFTLSINGVELEDLSIYYCQQGNILPYTFGAGTRLELKR
notes: Rat monoclonal antibody from a hybridoma; Only the variable regions are tied to the clone by name; also called EIG-B 1862
Turning to B1, the binding result is given as “binds”.

B2: EIG-B 10D9 (antibody, V domains shown)
VH: QVQLKESGPGLVQPSQTLSLTCTVSGFSLTSYHISWVRQPPGKGLEWIAAISSGGDTYYNSLLKSRLSISRDTSKSQVFLKMNRLQTEDTAFYFCNGESYWGQGTLVTVSS
VL: DVVLTQSPATLSVTPGERISLSCRASENIDTYLHWFQQKPNESPRLLIKFASQSISGIPSRFSGSGSGTDFTLSINGVELEDLSIYYCQQGNILPYTFGAGTKLELKR
notes: Rat monoclonal antibody from a hybridoma; Only the variable regions are tied to the clone by name; The constant regions are not tied to the clone
With B2, the binding result is recorded as “binds”.

B3: EIG-D 26D7 (antibody, V domains shown)
VH: QVQLQQPGADLVRPGSSVKLSCKASGYSFTSYWMDWVKQRPGQGLEWIGNIYPSDGETHYNQKFKDKATLTVDKSSSTAYMQLSSLTSEDSAVYYCARLYSEYGSWGQGTTLTVSS
VL: DIVMTQSPSSLTVTTGEKVTMSCKSSQSLLNSGNQKNYLTWYQQRPGQPPKLLIYWASTRDSGVPDRFTGSGSGTDFTLTISSVQAADLAVYYCQNDYSYPLTFGAGTKLELKR
notes: Mouse monoclonal antibody from a hybridoma; Only the variable regions are tied to the clone by name; The constant regions are not tied to the clone
For the molecule B3, the binding result was “binds”.
